Test results taken from doi:10.1101/2022.10.14.512271.

Assays:
[1] = biological target: lac repressor M42I/K84L (IhL) (UniProt P03023 1-360, M42I;K84L); test: fluorescence anisotropy
lac repressor M42I (Ihk) = lac repressor M42I (Ihk) (UniProt P03023 1-360, M42I); test: fluorescence anisotropy
lac repressor M42I (Ihk), sequence (P03023 whole entry M42I): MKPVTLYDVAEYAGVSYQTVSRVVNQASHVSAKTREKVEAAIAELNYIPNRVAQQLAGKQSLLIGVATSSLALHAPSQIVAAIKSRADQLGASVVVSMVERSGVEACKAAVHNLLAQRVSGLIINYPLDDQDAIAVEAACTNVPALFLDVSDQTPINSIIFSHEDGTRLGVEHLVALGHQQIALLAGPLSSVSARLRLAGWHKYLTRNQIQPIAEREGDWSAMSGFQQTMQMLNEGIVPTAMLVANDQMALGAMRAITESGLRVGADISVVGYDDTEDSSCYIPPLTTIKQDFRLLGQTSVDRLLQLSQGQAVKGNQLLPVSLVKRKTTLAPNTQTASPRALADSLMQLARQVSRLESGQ

lac repressor M42I/K84L (IhL), sequence (P03023 whole entry M42I/K84L): as the sequence (P03023 whole entry M42I) above, with K84L counted along it

B1: FI-Oid (18-mer operator) (dsDNA)
DNA 1: ATTGTGAGCGCTCACAAT
DNA 2: ATTGTGAGCGCTCACAAT
B1: binds [1]; binds (lac repressor M42I (Ihk)).
